Seven molecules from US20250177546A1 (SANYOU BIOPHARMACEUTICALS, published 2025) can be followed below.

Residue numbers refer to the chain shown, from its start.

Assay [1] has as its target T1, human ROR1 on cells (full-length human ROR1 on huROR1-HEK293 cells; human ROR1 on A549 and HT-29 tumor cells) (human, UniProt Q01973 30-937).
T1 construct: whole, on cells; also called hROR1-HEK293T; A549 tumor cells
As to the kind of experiment: flow cytometry (FACS) on A549 tumor cells, anti-human IgG-Fc secondary antibody, MFI. The procedure: (§1) The specific method was as follows: A549 cells or HT-29 cells in the logarithmic growth phase were prepared to a single-cell suspension, the density was adjusted to 1×10⁶ cells/mL, 100 µL/well was added to a 96-well round-bottom plate, then centrifuged at 4° C., 300 g, and the supernatant was removed. […] After the incubation, the cell mixture was washed three times and then 100 μL of 1:300 diluted secondary antibody Goat F(ab′)₂ Anti-Human IgG-Fc (abcam, ab98596) was added. The mixture was incubated at 4° C. in the dark for 30 min. After washing three times, the cells were detected by flow cytometry (Beckman, CytoFLEX AOO-1-1102).

Assay [2] deals with T2, huROR1-His (human ROR1 ECD AA30-406 with C-terminal His tag, made in house) (human, UniProt Q01973 30-406).
T2 construct: range 30-406; Expressed in HEK293; also called antigen protein huROR1-His; not shown: C-terminal His tag
T2 sequence (Q01973 30-406 limits assumed): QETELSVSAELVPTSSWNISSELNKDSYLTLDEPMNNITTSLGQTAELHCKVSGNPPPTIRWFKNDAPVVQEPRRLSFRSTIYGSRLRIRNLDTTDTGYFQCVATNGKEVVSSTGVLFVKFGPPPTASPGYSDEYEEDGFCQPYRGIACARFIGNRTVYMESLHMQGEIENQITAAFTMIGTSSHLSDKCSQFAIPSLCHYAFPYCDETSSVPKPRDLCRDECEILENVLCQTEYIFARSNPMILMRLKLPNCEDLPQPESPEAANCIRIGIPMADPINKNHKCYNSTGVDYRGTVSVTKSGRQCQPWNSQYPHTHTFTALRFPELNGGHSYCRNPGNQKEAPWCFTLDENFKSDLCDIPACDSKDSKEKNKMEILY
As to the kind of experiment: ELISA, huROR1-His coated plate, goat anti-human Fc-HRP, OD450. (In general: In an ELISA, binding on a coated surface is turned into a signal by an enzyme label.)

The target in assay [3] is T1, human ROR1 on cells (full-length human …). The experiment in a line: flow cytometry (FACS) on HT29 (HT-29) tumor cells, anti-human IgG-Fc secondary antibody, MFI. The procedure: as §1
For orientation: Flow cytometry measures light scatter and fluorescence of single cells or particles in a stream.

Assay [4] has as its target T2, huROR1-His (human ROR1 ECD AA30-406 …). As to the kind of experiment: ELISA, huROR1-His coated plate, goat anti-human Fc-HRP, OD450. This is another data set of the same source.
The target is the same in assay [5]. Described as above. This is another data set of the same source.
The target in assay [6] is T1, human ROR1 on cells (full-length human …). As to the kind of experiment: flow cytometry (FACS) on huROR1-HEK293 cells, anti-human IgG-Fc secondary antibody, MFI. How it is done:
(§2) In this example, the binding activity of the antibody was evaluated using two types of cells, huROR1-HEK293 cells over-expressing human ROR1 and A549 tumor cells.
as §1, with “huROR1-HEK293” for “A549”, “A549” for “HT-29”, “cells/mL, then” for “cells/mL,”, “μL/well cells were” for “µL/well was”, “plate,” for “plate, then”

Assay [7] has as its target T3, MusROR1-His (mouse ROR1 ECD AA30-406 with C-terminal His tag) (mouse, UniProt Q9Z139 30-406).
T3 construct: range 30-406; Expressed in HEK293; also called mouse ROR1 antigen protein; not shown: C-terminal His tag
As to the kind of experiment: ELISA, MusROR1-His coated at 2 µg/mL, goat anti-human Fc-HRP, OD450. How it is done: (§3) 96-well ELISA plate was coated with 2 μg/mL MusROR1-His (30 μL/well) at 4° C. overnight. The next day, the plate was washed three times with PBST and then blocked with 5% skim milk for 2 h. […] After washing with PBST for three times, the secondary antibody Goat-anti-human Fc-HRP (abcam, ab97225) was added and incubated for 1 h. After incubation, the plate was washed with PBST for 6 times and TMB (SurModics, TMBS-1000-01) was added for color development. According to the color development results, 2 M HCl was added to terminate the reaction, and the data were read at OD450 using a microplate reader (Molecular Devices, SpecterMax 190).

The target in assay [8] is T4, huROR2-His (human ROR2 ECD AA34-403 with C-terminal His tag) (human, UniProt Q01974 34-403).
T4 construct: range 34-403; Expressed in HEK293; also called human ROR2 antigen protein; not shown: C-terminal His tag
T4 sequence (Q01974 34-403 limits assumed): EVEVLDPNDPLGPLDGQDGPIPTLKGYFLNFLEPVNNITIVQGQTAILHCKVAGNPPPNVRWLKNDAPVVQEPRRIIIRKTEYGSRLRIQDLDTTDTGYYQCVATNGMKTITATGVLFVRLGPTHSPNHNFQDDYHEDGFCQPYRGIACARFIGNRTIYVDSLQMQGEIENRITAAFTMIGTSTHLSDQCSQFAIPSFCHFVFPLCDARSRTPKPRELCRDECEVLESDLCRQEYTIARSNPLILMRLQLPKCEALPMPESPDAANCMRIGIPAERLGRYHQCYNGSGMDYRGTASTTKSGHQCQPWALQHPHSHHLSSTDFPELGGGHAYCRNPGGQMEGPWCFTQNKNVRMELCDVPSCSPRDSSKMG
As to the kind of experiment: ELISA, huROR2-His coated at 2 µg/mL, goat anti-human Fc-HRP, OD450. The procedure: as §3, with “huROR2-His” for “MusROR1-His”, “TMBS-1000-0)” for “TMBS-1000-01)”

Assay [9] addresses T2, huROR1-His (human ROR1 ECD AA30-406 …). As to the kind of experiment: Biacore T200 SPR; huROR1-His amine-coupled (~75 RU), antibody 4 and 20 nM as analyte, 1:1 Langmuir fit. How it is done:
Protein coupling: The huROR1-His protein produced in Example 1.2 was diluted to 5.6 μg/mL with NaAc buffer, pH 5.0, the flow rate was set to 10 μL/min, the chip activation time was set to the default value of 420 s with a mixture of 1-ethyl-(3-dimethylaminopropyl)carbodiimide (EDC) and N-hydroxysuccinimide (NHS), and the antigen protein huROR1-His was fixed to a level of about 75 RU using a coupling mode with a preset coupling amount, and the activated groups that were not bound to the test sample were blocked with ethanolamine.
Sample test conditions: PBS buffer (pH 7.4) containing 0.05% Tween-20 was used as the running buffer, and the running buffer was used as the control test sample. A series of antibody concentrations (4 nM, 20 nM) were set. During sample analysis, the flow rate was set to 30 μL/min, the binding time was 120 s, and the dissociation time was 360 s. After the dissociation was completed, 10 mM Gly-HCl (pH 2.0) was used for regeneration for 20 s to completely remove the antibody bound to the ligand.
Parameter fitting: The experiment was run in multiple cycles, with the response signal taking the analysis time as the horizontal axis and the response value as the vertical axis. After double reference subtraction, the obtained data were fitted by BiAcore T200 analysis software. The fitting model adopted was 1:1 Langmuir binding model, and Affinity metrics such as the binding dissociation constant were determined.
(In SPR one partner is held on a chip, and binding of the other changes the refractive index at the surface.)

For assay [10], the target named is T1, human ROR1 on cells (full-length human …). As to the kind of experiment: flow cytometry (FACS) on A549 tumor cells, anti-human IgG-Fc secondary antibody, MFI. The procedure:
as §2
as §1, with “huROR1-HEK293” for “A549”, “A549” for “HT-29”, “cells/mL, then” for “cells/mL,”, “μL/well cells were” for “µL/well was”, “plate,” for “plate, then”
The source holds these as a separate data set.

In assay [11] the target is T2, huROR1-His (human ROR1 ECD AA30-406 …). As to the kind of experiment: Gator (BLI) Advanced Kinetics; antibody 30 nM, huROR1-His 480-7.5 nM. How it is done: First, Q buffer was prepared with PBS (10 mM pH7.4) (IgG-free, purchased from Jackson ImmunoResearch Lab)+0.02% Tween 20 (purchased from thermo)+0.2% BSA (purchased from source culture), and the stock solution of the test antibody was diluted with the prepared Q buffer to a working solution with a final concentration of 30 nM, the stock solution of the antigen protein huROR1-His was prepared with Q buffer into a working solution with multiple dilutions (480, 240, 120, 60, 30, 15, 7.5 nM), and detection and analysis was then performed with Gator instrument and its accompanying software, selecting the Advanced Kinetics experimental mode is used.

Assay [12] has the same target. The experiment in a line: ELISA, huROR1-His coated at 2 µg/mL, goat anti-human Fc-HRP, OD450. The procedure: as §3, with “huROR1-His” for “MusROR1-His”

T1 sequence (Q01973 30-937): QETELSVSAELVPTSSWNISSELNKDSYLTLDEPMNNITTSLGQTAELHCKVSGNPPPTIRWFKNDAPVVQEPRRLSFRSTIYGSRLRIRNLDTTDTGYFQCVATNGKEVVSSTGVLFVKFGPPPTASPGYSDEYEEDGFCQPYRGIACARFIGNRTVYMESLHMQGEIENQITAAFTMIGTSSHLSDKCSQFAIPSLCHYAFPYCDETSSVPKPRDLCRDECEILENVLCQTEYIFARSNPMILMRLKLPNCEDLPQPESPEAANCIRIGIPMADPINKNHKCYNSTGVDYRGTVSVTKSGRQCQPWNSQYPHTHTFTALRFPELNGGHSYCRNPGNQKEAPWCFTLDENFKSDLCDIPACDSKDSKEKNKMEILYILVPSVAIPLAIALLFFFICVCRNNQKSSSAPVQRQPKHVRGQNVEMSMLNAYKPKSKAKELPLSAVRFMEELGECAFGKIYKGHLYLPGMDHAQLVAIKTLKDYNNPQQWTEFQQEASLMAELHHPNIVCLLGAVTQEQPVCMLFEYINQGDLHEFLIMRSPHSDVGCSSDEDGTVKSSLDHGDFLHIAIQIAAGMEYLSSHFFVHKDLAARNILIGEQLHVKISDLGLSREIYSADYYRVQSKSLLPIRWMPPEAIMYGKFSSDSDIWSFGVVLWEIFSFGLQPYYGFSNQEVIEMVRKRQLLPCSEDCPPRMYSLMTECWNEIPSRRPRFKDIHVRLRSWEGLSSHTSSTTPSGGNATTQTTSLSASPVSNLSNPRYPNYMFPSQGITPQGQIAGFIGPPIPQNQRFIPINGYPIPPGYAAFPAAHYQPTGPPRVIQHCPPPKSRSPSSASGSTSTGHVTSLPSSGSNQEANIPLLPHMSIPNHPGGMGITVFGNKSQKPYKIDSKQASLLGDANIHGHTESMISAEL
T3 sequence (Q9Z139 30-406 limits assumed): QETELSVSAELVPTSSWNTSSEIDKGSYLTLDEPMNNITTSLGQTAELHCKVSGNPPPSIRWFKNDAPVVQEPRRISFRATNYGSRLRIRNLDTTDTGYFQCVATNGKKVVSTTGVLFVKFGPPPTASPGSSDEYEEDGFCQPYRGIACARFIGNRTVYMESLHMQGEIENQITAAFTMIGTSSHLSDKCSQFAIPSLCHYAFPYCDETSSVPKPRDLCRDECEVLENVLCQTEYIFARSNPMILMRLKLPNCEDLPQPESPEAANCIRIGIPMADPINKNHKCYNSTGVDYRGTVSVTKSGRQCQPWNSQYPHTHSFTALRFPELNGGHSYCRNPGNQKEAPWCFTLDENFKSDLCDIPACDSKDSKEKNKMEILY

B1: B31-H3L3 (antibody, human IgG1, kappa, V domains shown)
VH: EVQLVESGGGLVQPGGSLRLSCAASGFTFSRYAMSWVRQAPGKGLEWVASISRGGSTYYADSVKGRFTISRDNSKNTLYLQMNSLRAEDTAVYYCASYFGNYDAMDYWGQGTTVTVSS
VL: DIQMTQSPSSLSASVGDRVTITCRASQDINNYVSWFQQKPGKAPKSLIYRANRLVSGVPSRFSGSGSGTDFTFTISSLQPEDFATYYCLQFDEFPYTFGGGTKLEIKR
In the case of B1, the “EC50 (read off the curve)” value in assay [1] and in assay [3] was about 20 ng/mL throughout. The concentration giving a half-maximal response (EC50) in [2] was found to be 4.6 ng/mL.

B2: B31-H4L4 (antibody, human IgG1, kappa, V domains shown)
VH: B1 VH with A49S, S50A
VL: B1 VL with V33L, V55Q, F73L
On to B2, for which the EC50 in assay [4] was 17.1 ng/mL.

B3: B31-H3L4 (antibody, human IgG1, kappa, V domains shown)
VH: B1 VH
VL: B1 VL with V33L, V55Q, F73L
As to B3, the EC50 in assay [2] was found to be 5.23 ng/mL.

B4: B31-H3L2 (antibody, human IgG1, kappa, V domains shown)
VH: B1 VH
VL: B1 VL with R24K, S56D, F71Y
Molecule B4 had an EC50 in assay [2] of 3.23 ng/mL. Compared with the last molecule, the EC50 is about 1.6-fold lower.

B5: B31-H4L2 (antibody, human IgG1, kappa, V domains shown)
VH: B1 VH with A49S, S50A
VL: B1 VL with R24K, S56D, F71Y
In assay [4], B5 registered an EC50 of 8.12 ng/mL.

B6: B31-H4L3 (antibody, human IgG1, kappa, V domains shown)
VH: B1 VH with A49S, S50A
VL: B1 VL
In the case of B6, the EC50 in assay [4] came to 5.74 ng/mL.

B7: B31 (chimeric antibody) (antibody, human IgG1, kappa, V domains shown)
VH: EVMLVESGGGLVKPGGSLKLSCAASGFTFSRYAMSWVRQTPEKRLEWVASISRGGSTYYPDSVKGRFTISRDNARNILYLQMSSLRSEDTAMYYCASYFGNYDAMDYWGQGTSVTVSS
VL: DIQMNQSPSSMYASLGERVTITCKASQDINNYVSWFQQKPGKSPKTLIYRANRLVDGVPSRFSGSGSGQDYSFTISSLEYEDMGIYYCLQFDEFPYTFGGGTKLEIKR
notes: ExpiCHO expression
Take B7: the EC50 is 2.12 ng/mL in assay [5], 1.92 ng/mL in assay [2], 1.63 ng/mL in assay [4] and 5.49 ng/mL in assay [12]. Also, the “EC50 (read off the curve)” value is about 80 ng/mL in assay [6] and about 5 ng/mL in assay [10]. For the same molecule, the binding result in [7] and in assay [8] was “no binding (tested: 1 µg/mL)” each time. Further, the Kd in [9] worked out at 1.25 nM; in [11], 5.67 nM. Further, the koff was found to be 0.000817 s⁻¹ in assay [9] and 0.00217 s⁻¹ in [11]. The values for the kon in assay [9] and in assay [11] were 653000 M⁻¹ s⁻¹ and 383000 M⁻¹ s⁻¹, respectively. Besides, in assay [9], the “t 1/2” value worked out at 14.1 min.

One may read the EC50 (read off the curve) as the concentration at which the effect is half-maximal. Read a low EC50 (read off the curve) as greater potency. A word on the EC50: it is the concentration at which the effect is half-maximal. One may read the Kd as the equilibrium constant for the complex coming apart. High values mean lower affinity, low ones higher affinity. In general, koff refers to a measure of how fast the partners let go of each other. Low readings indicate a long-lived complex, high ones a short-lived complex. As a reminder, the kon is the rate constant with which the complex forms. A low value points to slow association.
